Measured values as given in US20140179594A1, “STREPTOCOCCUS BACTERIOPHAGE LYSINS FOR TREATMENT OF GRAM POSITIVE BACTERIA IN COMPANION ANIMALS AND LIVESTOCK” (priority 2011, published 2014).
Where two headings read alike, the source gives them in different places.

Columns and labels:
S. suis strain (7711) = test: PlySs1 optimal biochemical conditions, turbidity reduction (OD600); assay type: cell-based; settings: for pH of maximal lysis: bis-tris-propane (BTP) buffer
Method: FIGS. 11A and 11B depicts ΔPlySs1 pH dependence. (A) Cells of host strain 7711 were suspended in phosphate citrate buffer (40/20 mM) at a range of pH-values from 4.6 to 8.0. ΔPlySs1 was added (110 μg/ml) and OD600 was measured over 60 min (horizontal axis) at 37° C. The vertical axis represents the treated/untreated OD600-ratio at each timepoint. For each pH-value, the curve depicts the running average of 3 independent experiments. Overall, activity was maximal at the upper end of the buffering range. (B) Here, bis-tris-propane (40 mM) was employed as the buffering agent with a pH-range from 7.0 to 9.7; ΔPlySs1 was again added to 110 μg/ml. Each curve depicts the running average of 3 experiments.
FIG. 12 depicts ΔPLySS1 NaCl dependence. S. suis 7711 cells were suspended in phosphate-citrate buffer pH=7.8 (40/20 mM). NaCl was added to the above concentrations, followed by ΔPlySs1 at 110 μg/ml. Optical density at 600 nm was observed over 60 min at 37° C. In this figure, the vertical axis represents the treated/untreated OD600-ratio for each NaCl concentration, averaged over 3 independent experiments.
FIGS. 13A and 13B provides assessment of ΔPlySs1 DTT and EDTA susceptibility. (A) ΔPlySs1 was pre-incubated for 1 hr with 5 mM DTT (a large molar excess) prior to addition to 7711 cells; activity was unchanged. (B) Here, various concentrations of EDTA were included in the buffered suspension of cells prior to addition of ΔPlySs1 (110 μg/ml lysin). For both images, the vertical axis represents the treated/untreated OD600-ratio for each condition, averaged over 3 independent experiments.
(A) A ΔPlySs1 stock solution was held at each of the above temperature for 30 minutes, followed by addition to 7711 cells (270 μg/ml final enzyme concentration, final temperature=37° C., ideal buffering conditions). The curves in this image represent running averages of 3 individual experiments. In each case, complete loss of activity was observed between the 45° C. and 50° C. samples. The 3 hottest samples show a slightly higher OD600 reading than the untreated control due to flocculation of ΔPlySs1 upon denaturation. (B) The above experiment was repeated, but with 6 hours of heat-treatment prior to the assay. […] The 40° C. sample maintained essentially native activity.
The optimal biochemical conditions for PlySs1 were determined against live cells of the encoding S. suis strain (7711). For these experiments, activity was gauged through the degree of turbidity reduction (OD600) of an aqueous bacterial suspension following the addition of lysin. The pH-dependence of the enzyme was first addressed using two buffer sets with adjacent pH ranges, citrate/phosphate: 4.6-8.0; and bis-tris-propane (BTP): 7.0-9.7. An extended spectrum of lysis was observed, from 5.4-9.4 (FIG. 11A). In BTP, lysis was maximal from 8.2-9.0; at commensurate pH-values, however, the magnitude of the OD-drop was slightly more pronounced in citrate/phosphate (FIG. 11B).
At constant enzyme concentrations, bacteriolysis varied little from 0-1000 mM NaCl, with only small numeric increases under the most hypotonic conditions (FIG. 12). […] The thermal stability of PlySs1 was examined by incubating the enzyme at various elevated temperatures prior to use (the OD-drop experiment itself was always conducted at 37° C.). When held at 35° C.-60° C. for 30 min, lysin activity was virtually unaffected until 50° C., at which point it was completely abolished (FIG. 14A). […] The latter corresponds to typical porcine body temperature.

S. dysgalactiae 21597 = test: ΔPlySs1 OD600 lysis, 1 hr; assay type: cell-based
S. oralis 35037 = test: ΔPlySs1 OD600 lysis, 1 hr; assay type: cell-based
S. equi 9528 = test: ΔPlySs1 OD600 lysis, 1 hr; assay type: cell-based
S. salivarius 9222 = test: ΔPlySs1 OD600 lysis, 1 hr; assay type: cell-based
[1] = tested on: Group E streptococci K131; test: ΔPlySs1 OD600 lysis, 1 hr; assay type: cell-based
B. thuringiensis HD73 = test: ΔPlySs1 OD600 lysis, 1 hr; assay type: cell-based
B. anthracis ΔSterne = assay type: cell-based
B. cereus 14579 = test: ΔPlySs1 OD600 lysis, 1 hr; assay type: cell-based
L. monocytogenes HER1084 = test: ΔPlySs1 OD600 lysis, 1 hr; assay type: cell-based
[2] = tested on: purified S. suis cell walls (from type strain 5735); test: PlySs1 bond specificity, double digestion with HEWL, mass spectrum; assay type: biochemical; settings: double digestion with HEWL and PlySs1
Excerpt: To determine the bond specificity of the enzymatic domain of PlySs1, purified S. suis cell walls (from type strain 5735) were subject to double digestion with HEWL (a muramidase) and PlySs1. The two predominant peaks were m/z=718 and m/z=734. This corresponds exactly to the predicted masses of the [Na-M]+ and [K-M]+ adducts of GlcNAc-MurNAc-LAla-D-Gln. […] When a mass spectrum was taken of undigested cell wall, the above two peaks were absent.

B1: ΔPlySs1: truncated PlySs1 lysin with N-terminal enzymatic and central binding domains, N-terminal 254 amino acids, SEQ ID NO:2 (protein, listed as Streptococcus suis)
chain: MTINLETSIRWMSDRVGKVSYSMDYRNGPNSYDCSSAVYYALMAGGAISAGWAVNTEYMHDWLIRNGYVLVAENKPFNAQRHDVCILGKRGYSSGAGGHVVIFVDNVNVIHCNYARNGISIDNYNQVHRGMYYYLYRPANQPSISNKSLDQLVKETLAGVHGNGDTRKASLGSQYEAVMAVINGKASASEKSDEELAREVLAGKHGAGEDRKRSLGPRYEPVQAKVNELLKAKEKPSETAKNEPQTVQFKEDGDL
S. suis strain (7711); 0-1000 mM NaCl, constant enzyme concentration
  effect of salt concentration on bacteriolysis: varied little
S. suis strain (7711); 6-hr incubation at 40° C.
  thermal stability, activity after heat treatment: unaffected
S. suis strain (7711); 6-hr incubation at 45° C.
  thermal stability, activity after heat treatment: partial decrease in activity
S. suis strain (7711); S. suis 7711
  pH of maximal lysis: 9.0
S. suis strain (7711); S. suis 7711, listed as PlySs1
  pH of maximal lysis: 8.2-9.0
S. suis strain (7711); S. suis 7711, citrate/phosphate 4.6-8.0 and bis-tris-propane 7.0-9.7
  pH spectrum of lysis: 5.4-9.4
S. suis strain (7711); exposure to an excess of DTT (5 mM, 1 hr pre-incubation)
  effect of DTT on activity: did not negatively impact activity
S. suis strain (7711); exposure to an excess of EDTA
  effect of EDTA on activity: did not negatively impact activity
S. suis strain (7711); held at 35° C.-60° C. for 30 min before assay at 37° C.
  temperature at which activity is completely abolished: 50 °C
S. dysgalactiae 21597; 6.5 μg/ml
  1-hour treated/untreated OD600-ratio: 0.26
S. dysgalactiae 21597; 13 μg/ml
  1-hour treated/untreated OD600-ratio: 0.18
S. dysgalactiae 21597; 30 μg/ml
  1-hour treated/untreated OD600-ratio: 0.12
S. dysgalactiae 21597; 65 μg/ml
  1-hour treated/untreated OD600-ratio: 0.10
S. dysgalactiae 21597; 130 μg/ml
  1-hour treated/untreated OD600-ratio: 0.09
S. oralis 35037; 6.5 μg/ml
  1-hour treated/untreated OD600-ratio: 0.30
S. oralis 35037; 13 μg/ml
  1-hour treated/untreated OD600-ratio: 0.13
S. oralis 35037; 30 μg/ml
  1-hour treated/untreated OD600-ratio: 0.08
S. oralis 35037; 65 μg/ml
  1-hour treated/untreated OD600-ratio: 0.07
S. oralis 35037; 130 μg/ml
  1-hour treated/untreated OD600-ratio: 0.04
S. equi 9528; 6.5 μg/ml
  1-hour treated/untreated OD600-ratio: 0.66
S. equi 9528; 13 μg/ml
  1-hour treated/untreated OD600-ratio: 0.45
S. equi 9528; 30 μg/ml
  1-hour treated/untreated OD600-ratio: 0.25
S. equi 9528; 65 μg/ml
  1-hour treated/untreated OD600-ratio: 0.19
S. equi 9528; 130 μg/ml
  1-hour treated/untreated OD600-ratio: 0.16
S. salivarius 9222; 6.5 μg/ml
  1-hour treated/untreated OD600-ratio: 0.80
S. salivarius 9222; 13 μg/ml
  1-hour treated/untreated OD600-ratio: 0.76
S. salivarius 9222; 30 μg/ml
  1-hour treated/untreated OD600-ratio: 0.56
S. salivarius 9222; 65 μg/ml
  1-hour treated/untreated OD600-ratio: 0.53
S. salivarius 9222; 130 μg/ml
  1-hour treated/untreated OD600-ratio: 0.37
[1]; 6.5 μg/ml
  1-hour treated/untreated OD600-ratio: 0.69
[1]; 13 μg/ml
  1-hour treated/untreated OD600-ratio: 0.50
[1]; 30 μg/ml
  1-hour treated/untreated OD600-ratio: 0.33
[1]; 65 μg/ml
  1-hour treated/untreated OD600-ratio: 0.22
[1]; 130 μg/ml
  1-hour treated/untreated OD600-ratio: 0.15
B. thuringiensis HD73; 6.5 μg/ml
  1-hour treated/untreated OD600-ratio: 0.99
B. thuringiensis HD73; 13 μg/ml
  1-hour treated/untreated OD600-ratio: 0.98
B. thuringiensis HD73; 30 μg/ml
  1-hour treated/untreated OD600-ratio: 0.93
B. thuringiensis HD73; 65 μg/ml
  1-hour treated/untreated OD600-ratio: 0.86
B. thuringiensis HD73; 130 μg/ml
  1-hour treated/untreated OD600-ratio: 0.60
B. anthracis ΔSterne; 6.5 μg/ml
  1-hour treated/untreated OD600-ratio: 1.02
B. anthracis ΔSterne; 30 μg/ml
  1-hour treated/untreated OD600-ratio: 1.02
B. anthracis ΔSterne; 65 μg/ml
  1-hour treated/untreated OD600-ratio: 0.98
B. anthracis ΔSterne; 130 μg/ml
  1-hour treated/untreated OD600-ratio: 0.90
B. cereus 14579; 6.5 μg/ml
  1-hour treated/untreated OD600-ratio: 0.93
B. cereus 14579; 13 μg/ml
  1-hour treated/untreated OD600-ratio: 0.92
B. cereus 14579; 30 μg/ml
  1-hour treated/untreated OD600-ratio: 0.86
B. cereus 14579; 65 μg/ml
  1-hour treated/untreated OD600-ratio: 0.90
B. cereus 14579; 130 μg/ml
  1-hour treated/untreated OD600-ratio: 0.86
L. monocytogenes HER1084; 6.5 μg/ml
  1-hour treated/untreated OD600-ratio: 0.63
L. monocytogenes HER1084; 13 μg/ml
  1-hour treated/untreated OD600-ratio: 0.52
L. monocytogenes HER1084; 30 μg/ml
  1-hour treated/untreated OD600-ratio: 0.26
L. monocytogenes HER1084; 65 μg/ml
  1-hour treated/untreated OD600-ratio: 0.14
L. monocytogenes HER1084; 130 μg/ml
  1-hour treated/untreated OD600-ratio: 0.04
[2]
  bond specificity of the enzymatic domain: gamma-endopeptidase activity
